# Results: PMC8216847
# Target: SARS-HCoV-2 S2 extra-cellular domain (SARS-CoV-2)
substance,measurement,value
CV3-25 (antibody),IC50 of neutralisation of SARS-CoV-2 pseudovirus on HEK293T-hACE2 cells,0.34 µg/mL
